Measured values published in the supplement of paper PMC10567573.

B1: ZNF193 (parent)
chain: QCIECGKSFNRHCNLIRHQKIHTV
B2: WSB1 (parent)
chain: DLKDDGNMMKVLRGHQNWVYSCAF

Variants of: B1
Assay: protein stability index of a GFP-peptide fusion (GPS, HEK-293T) (PSI 1-6); higher = more stable
Conditions: c terminus: a fixed tail appended
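Also: lentivirally expressed fusions sorted by FACS into six bins by GFP to DsRed ratio, PSI derived from sequencing read proportions per bin multiplied by bin number.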

Protein stability index of substitutions, site by site:
T23: Q 4.09, N 4.08, Y 3.31, E 4.38, M 3.33, V 3.26, P 3.23, C 3.58, R 3.91, I 2.6, K 3.47, W 2.56, D 3.13, L 2.7, S 3.68, H 3.9, F 2.85, G 3.31
Q19: D 2.03, W 2.25, P 1.99, F 2.73, M 3.48, K 3.27, H 2.72, S 3.46, R 2.98, V 2.5, Y 2.59, E 3.73, T 2.79, L 2.75, I 2.8, N 2.81, C 3.78, G 2.5
I21: V 3.74, R 3.81, Y 3.6, W 3.55, D 3.93, Q 4.49, C 3.85, P 3.1, H 3.77, A 4, M 3.72, G 3.51, K 4.25, L 3.48, N 3.52, T 4.39, E 4.1, F 3.15, S 4
V24: C 3.99, D 3.83, G 3.56, A 4.26, R 3.83, I 2.8, P 4.21, L 3.43, M 4.19, W 2.75, T 3.84, H 3.83, F 3.41, Y 3.4, K 4.68, S 4.21, Q 3.87, N 4.22, E 4.36
H22: I 2.25, E 2.63, V 2.32, L 2.88, K 2.41, N 2.78, W 1.74, R 2.89, S 2.45, T 2.11, D 2.08, M 2.34, C 4.83, Q 2.7, G 2.94, Y 1.56, P 2.62, F 1.63, A 2.76
K20: I 2.2, G 2.38, S 3.3, Y 2.2, E 3.29, M 3.13, W 2.22, P 2.7, C 3.47, L 2.93, A 3.85, T 2.63, N 2.61, F 2.95, H 2.9, V 2.66, D 2.83, R 3.4, Q 3.5

Variants of: B2
Assay: as above
Conditions: c terminus: a fixed tail appended

Protein stability index: each site, then its substitutions
D1: G 1.76, P 1.59, A 1.62, M 2.04, N 2.02, L 2.52, Y 1.78, V 1.89, Q 1.38, F 2.47, H 1.78, K 2.65, T 2.3, R 1, E 2.24
D4: C 2.88, E 1.91, F 2.77, G 1.16, H 1.66
K3: N 1.43, C 2.27, G 2.54, T 2.65, S 1.77, F 2.12, M 2.06, E 1.9, W 2.49, H 1.93, R 1.48, L 1.83, Q 1.37, A 2.75, Y 1.84, P 1.07, D 2.57
L2: K 1.54, Q 1.83, Y 1.93, A 1.47, F 1.59, T 2.08, H 1.68, M 1.65, G 1.91, V 1.29, E 1.95, P 1.82, D 2.39, C 2.13, N 2.53, S 1.34, I 1.69, R 2.05
